We go through 23 compounds from patent US20110294738A1, “PTHR1 RECEPTOR COMPOUNDS” (priority 2008, published 2011).

Where two headings read alike, the source gives them in different places. Peptide text beside a SMILES is read from it. * marks the point of attachment. Palmitoyl = CCCCCCCCCCCCCCCC(=O)*

Series [1] deals with T1, PTHR1 (Rattus norvegicus, UniProt P25961).
T1 sequence (P25961 27-591): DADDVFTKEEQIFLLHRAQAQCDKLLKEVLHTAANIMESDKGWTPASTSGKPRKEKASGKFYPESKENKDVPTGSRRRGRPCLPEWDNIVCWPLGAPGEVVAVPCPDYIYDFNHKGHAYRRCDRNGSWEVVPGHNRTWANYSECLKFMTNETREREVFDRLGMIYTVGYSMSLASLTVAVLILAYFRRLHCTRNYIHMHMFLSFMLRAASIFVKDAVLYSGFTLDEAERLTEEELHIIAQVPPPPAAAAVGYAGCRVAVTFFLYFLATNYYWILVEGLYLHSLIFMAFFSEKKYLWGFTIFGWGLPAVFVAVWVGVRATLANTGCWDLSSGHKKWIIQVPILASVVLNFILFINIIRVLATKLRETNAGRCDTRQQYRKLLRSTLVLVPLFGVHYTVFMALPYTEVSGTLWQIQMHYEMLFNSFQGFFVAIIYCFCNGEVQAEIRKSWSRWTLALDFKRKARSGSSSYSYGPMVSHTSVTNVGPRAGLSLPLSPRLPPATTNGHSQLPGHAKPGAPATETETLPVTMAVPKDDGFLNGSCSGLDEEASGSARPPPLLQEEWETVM
The experiment in a line: cAMP screening assay using DiscoveRX XS+ kit (PTH1-34 dose-response in UMR-106 cells). The settings on record: compound 10 μM; for Fold Shift of EC50: PTH1-34 EC50 compound/EC50 vehicle; for Inhibition of Maximal Response: PTH1-34 stimulated maximal response, 1−(Emax compound/Emax vehicle).
Experimental: (§1) cAMP Screening Assay Using DiscoveRX XS+ Kit
(§2) UMR-106 cells were seeded in 96-well white plates at 10K cells/well in growth media. Twenty four hours after seeding, cell media was removed by gentle dumping and replaced with 30 μL of compounds diluted to 10 μM final concentration in assay buffer (Hank's balanced Salt Solution, 20 mM HEPES, pH 7.4, 0.1 μM IBMX). After 30 minute incubation at room temperature, 10 μL human PTH1-34 serial diluted in assay buffer was added. Cells were incubated at 37° C. for 15 minutes before 10 μL of water soluble analog of forskolin, NKH477 was added to final concentration of 10 μM followed by 60 minute incubation at room temperature. DiscoveRX cAMP XS+ kit reagents were then added following manufacture protocol. Briefly, 10 μL of antibody was added to each well followed by 40 μL of ED/Lysis buffer mix (1/5/19 for Galacon-star/Emerald/Lysis buffer and then 1:1 with ED). After 1 hour incubation, 40 μL of EA reagent was added followed by at least 1 hour incubation before the plates were read on TopCount reader. Data was analyzed using GraphPad Prism. PTH1-34 dose-response curves were fitted using non-linear curve fit (Y=Bottom+(Top−Bottom)/(1+10̂((Log EC50−X)*HillSlope))). PTH1-34 EC50 values calculated in the presence of compounds were compared to that in the presence of vehicle control. The ratio of the EC50 values were calculated and presented as fold shift (EC50 compound/EC50 vehicle). The effect of compounds on PTH1-34 stimulated maximal response was also assessed and was presented percent inhibition (1−(Emax compound/Emax vehicle)).

Series [2] has as its target T1, PTHR1.
Experimental: as §1, §2

As to TNAGRSDTRAQYRKLL [Compound 81], in the series with PTHR1 [1], the “Fold Shift of EC50” value was determined as 13.8 and the “Inhibition of Maximal Response” value is −20.80%.
Take LYLHSLIFMSFFSEKK [Compound 40]: at PTHR1 [1], the “Fold Shift of EC50” value came out at 1.5 and the “Inhibition of Maximal Response” value was 28.30%.
On to TNAGRSDTRQQYRKAL [Compound 89], for which, in the series with PTHR1 [1], the “Fold Shift of EC50” value worked out at 2.3 and the “Inhibition of Maximal Response” value is recorded as −20.40%.
RETNAGRSDTRQQYRKLLFS [Compound 58]: in the series with PTHR1 [2], the “Fold Shift of EC50” value amounted to 17.74.
For the compound TNAARSDTRQQYRKLL [Compound 80], in the series with PTHR1 [1], the “Fold Shift of EC50” value worked out at 2.3 and the “Inhibition of Maximal Response” value is recorded as 0.80%.
Turning to RRLHSTRNYIH [Compound 2], in the series with PTHR1 [1], the “Fold Shift of EC50” value is listed as 1.9 and the “Inhibition of Maximal Response” value is listed as −24.90%.
RRLHSTRNYIHMHL [Compound 16]: in the series with PTHR1 [2], the “Fold Shift of EC50” value is listed as 2.45.
Turning to TNAGRSDTRQQYAKLL [Compound 91], in the series with PTHR1 [1], the “Fold Shift of EC50” value was 2 and the “Inhibition of Maximal Response” value came out at 9.80%.
In the case of AGRSDTRQQYRKLLKS [Compound 65], the “Fold Shift of EC50” value in the series with PTHR1 [2] is 14.65.
Consider SSYFRRLHSTRNYIH [Compound 12], for which, in the series with PTHR1 [1], the “Fold Shift of EC50” value is listed as 0.9 and the “Inhibition of Maximal Response” value stood at 26.60%.
The matching figures for AGRSDTRQQYRKLLFS [Compound 95]: 19 and −5.70%.
For TNAGRSDTRQQARKLL [Compound 92] the same measures were 5 and 8.30%.
The matching figures for LAYFRRLHSTRNY [Compound 3]: 0.7 and −51.40%.
Turning to TNAGRSDARQQYRKLL [Compound 79], in the series with PTHR1 [1], the “Fold Shift of EC50” value is given as 7.2 and the “Inhibition of Maximal Response” value is given as 1.20%.
For TNAGRSDTRQQYRKLLFS [Compound 85] the same measures were 6.9 and 19.50%.
On to TNAGRSDTRQQYRALL [Compound 90], for which, in the series with PTHR1 [1], the “Fold Shift of EC50” value was found to be 2 and the “Inhibition of Maximal Response” value is reported as 21.00%.
For TNAGASDTRQQYRKLL [Compound 76], in the series with PTHR1 [1], the “Fold Shift of EC50” value was 16.9 and the “Inhibition of Maximal Response” value is on record as 2.40%.
On to LYLHSLIFMAFFSEKKYLWGFT [Compound 34], for which, in the series with PTHR1 [1], the “Fold Shift of EC50” value came out at 1.2 and the “Inhibition of Maximal Response” value was found to be 4.20%.
With `CCCCCCCCCCCCCCCC(=O)N[C@@H](CC(N)=O)C(=O)NCC(=O)N[C@@H](CCC(=O)O)C(=O)N[C@H](C(=O)N[C@@H](CCC(N)=O)C(=O)N[C@@H](C)C(=O)N[C@@H](CCC(=O)O)C(=O)N[C@H](C(=O)N[C@@H](CCCCN)C(=O)N[C@@H](CCCCN)C(=O)N[C@@H](CO)C(=O)N[C@@H](Cc1c[nH]c2ccccc12)C(N)=O)[C@@H](C)CC)C(C)C` [Compound 99] (Palmitoyl-NGEVQAEIKKSW-NH2), at PTHR1 [2], the “Fold Shift of EC50” value came out at 1.
For TNAGRSDTRQAYRKLL [Compound 93], in the series with PTHR1 [1], the “Fold Shift of EC50” value amounted to 13.4 and the “Inhibition of Maximal Response” value was −67.00%.
The matching figures for “Pal-TNAGRSATRQQYRKLL-amide (Palmitoyl-TNAGRSATRQQYRKLL-NH2; SMILES CCCCCCCCCCCCCCCC(=O)N[C@H](C(=O)N[C@@H](CC(N)=O)C(=O)N[C@@H](C)C(=O)NCC(=O)N[C@@H](CCCNC(=N)N)C(=O)N[C@@H](CO)C(=O)N[C@@H](C)C(=O)N[C@H](C(=O)N[C@@H](CCCNC(=N)N)C(=O)N[C@@H](CCC(N)=O)C(=O)N[C@@H](CCC(N)=O)C(=O)N[C@@H](Cc1ccc(O)cc1)C(=O)N[C@@H](CCCNC(=N)N)C(=O)N[C@@H](CCCCN)C(=O)N[C@@H](CC(C)C)C(=O)N[C@@H](CC(C)C)C(N)=O)[C@@H](C)O)[C@@H](C)O) [Compound 82]”: 23.4 and −21.60%.
For TNAGRSDTAQQYRKLL [Compound 78] the same measures were 12.7 and −29.20%.
Consider GSYFRRLHSTRNYIH [Compound 11], for which, in the series with PTHR1 [1], the “Fold Shift of EC50” value was determined as 1.1 and the “Inhibition of Maximal Response” value is 19.80%.
